Data: patent publication US5856135, “Reshaped human antibody to human interleukin-6” (Chugai Seiyaku Kabushiki Kaisha, dated 1999)
Numbering of substitutions follows the chain as printed. One block for each binder: values may come before it.

Legend:
recombinant human IL-6 [1] = molecular target: T1, recombinant human IL-6 (human, UniProt P05231); assay: antigen-binding ELISA (FIG. 9)
Protocol: (§1) An ELISA plate for antigen-binding assay was prepared as follows. A 96-well plate was coated with mouse monoclonal antibody MH166 recognizing a different epitope of human IL-6 from that recognized by SK2 (Matsuda, T. et al., Eur. J. Immunol. 18, 951–956, 1988), and after blocking, recombinant human IL-6 was added thereto. A sample of the chimeric SK2 antibody was sequentially diluted, added to each well, and then an alkaline phosphatase-conjugated goat anti-human IgG antibody (Sigma) was added thereto. After incubation and washing, substrate was added, and absorbance at 405 nm was measured.

biotinylated IL-6 [2] = molecular target: T2, biotinylated IL-6 (human, UniProt P05231, biotinylated (site not stated)); assay: binding-inhibition ELISA, IL-6 to IL-6R (FIG. 10)
Protocol: (§2) For binding-inhibition assay, an ELISA plate was prepared as follows. A 96-well plate was coated with mouse monoclonal antibody, MT-18 (Hirata, Y. et al., J. Immunol., 143, 2900–2907, 1989), specific to human IL-6 receptor (IL-6R), and, after blocking, soluble recombinant human IL-6R (SR344) (Yasukawa, K. et al., J. Biochem. 108, 673–676, 1990) was added thereto. A sample of this chimeric SK2 antibody was sequentially diluted, and added with biotinylated IL-6 to each well, and after adding an alkaline phosphatase-conjugated streptavidin thereto, absorbance at 405 nm was measured.

recombinant human IL-6 [3] = molecular target: T1, recombinant human IL-6; assay: ELISA, told in the description of the chimeric antibody
Protocol: as §1

biotinylated IL-6 [4] = molecular target: T2, biotinylated IL-6; assay: binding-inhibition ELISA, IL-6 to IL-6R (FIG. 10), reference
Protocol: as §2

recombinant human IL-6 [5] = molecular target: T1, recombinant human IL-6; assay: antigen-binding ELISA (FIG. 8)
Protocol: as §1

B1: reshaped human SK2 antibody, L chain version "a" and H chain version "a" (antibody, V domains shown)
VH: QVTLRESGPALVRPTQTLTLTCTFSGFSLSTSGMTVGWIRQPPGEALEWLAHIWWNDDKYYNPALKGRLAVSKDTSKNQVVLSMNTVGPGDTATYYCARMEDYDEAMDYWGQGILVTVSS
VL: DIQMTQSPSSLSASVGDRVTITCRASENIYSNLAWYQQKPGKAPKLLIYAATYLADGVPSRFSGSGSGTDFTFTISSLQPEDIATYYCQHFWGTPPFGQGTKVEIK
binding result (recombinant human IL-6 [1]): binds
binding result (biotinylated IL-6 [2]): binds

B2: reshaped human SK2 antibody, L chain version "b" and H chain version "b" (antibody, V domains shown)
VH: B1 VH with S30N
VL: B1 VL with F71Y
binding result (recombinant human IL-6 [1]): binds

B3: reshaped human SK2 antibody, L chain version "a" and H chain version "b" (antibody, V domains shown)
VH: B1 VH with S30N
VL: B1 VL
binding result (recombinant human IL-6 [1]): binds
binding result (biotinylated IL-6 [2]): binds

B4: reshaped human SK2 antibody, L chain version "b" and H chain version "a" (antibody, V domains shown)
VH: B1 VH
VL: B1 VL with F71Y
binding result (recombinant human IL-6 [1]): binds
binding result (biotinylated IL-6 [2]): binds

Second part, the binder after the results:

binding result (recombinant human IL-6 [3]): binds
binding result (biotinylated IL-6 [4]): binds
B5: chimeric SK2 antibody (antibody, V domains shown)
VH: QVTLKESGPGILQPSQTLSLTCSFSGFSLNTSGMTVGWIRQPSGKGLEWLAHIWWNDDKYYNPALKGRLTISKDTSNNQVFLKIASVVTADTATYYCARMEDYDEAMDYWGQGTSVTVSS
VL: DIQMTQSPASLSVSVGETVTITCRASENIYSNLAWYQQKQGKSPQLLVYAATYLADGVPSRFSGSGSGTQYSLKINSLQSEDFGSYYCQHFWGTPPFGSGTKLEIK

binding result (recombinant human IL-6 [5]): binds
B6: antibody comprising reshaped L chain version "b" and chimeric H chain (antibody, V domains shown)
VH: B5 VH
VL: B1 VL with F71Y

binding result (recombinant human IL-6 [5]): binds
B7: antibody comprising reshaped L chain version "a" and chimeric H chain (antibody, V domains shown)
VH: B5 VH
VL: B1 VL
